Laboratory results taken from publication PMC4615246 (Nucleus, 2015).

T1: LacI-CFP-Nup107 (human, UniProt P57740 1-925)
T1 sequence: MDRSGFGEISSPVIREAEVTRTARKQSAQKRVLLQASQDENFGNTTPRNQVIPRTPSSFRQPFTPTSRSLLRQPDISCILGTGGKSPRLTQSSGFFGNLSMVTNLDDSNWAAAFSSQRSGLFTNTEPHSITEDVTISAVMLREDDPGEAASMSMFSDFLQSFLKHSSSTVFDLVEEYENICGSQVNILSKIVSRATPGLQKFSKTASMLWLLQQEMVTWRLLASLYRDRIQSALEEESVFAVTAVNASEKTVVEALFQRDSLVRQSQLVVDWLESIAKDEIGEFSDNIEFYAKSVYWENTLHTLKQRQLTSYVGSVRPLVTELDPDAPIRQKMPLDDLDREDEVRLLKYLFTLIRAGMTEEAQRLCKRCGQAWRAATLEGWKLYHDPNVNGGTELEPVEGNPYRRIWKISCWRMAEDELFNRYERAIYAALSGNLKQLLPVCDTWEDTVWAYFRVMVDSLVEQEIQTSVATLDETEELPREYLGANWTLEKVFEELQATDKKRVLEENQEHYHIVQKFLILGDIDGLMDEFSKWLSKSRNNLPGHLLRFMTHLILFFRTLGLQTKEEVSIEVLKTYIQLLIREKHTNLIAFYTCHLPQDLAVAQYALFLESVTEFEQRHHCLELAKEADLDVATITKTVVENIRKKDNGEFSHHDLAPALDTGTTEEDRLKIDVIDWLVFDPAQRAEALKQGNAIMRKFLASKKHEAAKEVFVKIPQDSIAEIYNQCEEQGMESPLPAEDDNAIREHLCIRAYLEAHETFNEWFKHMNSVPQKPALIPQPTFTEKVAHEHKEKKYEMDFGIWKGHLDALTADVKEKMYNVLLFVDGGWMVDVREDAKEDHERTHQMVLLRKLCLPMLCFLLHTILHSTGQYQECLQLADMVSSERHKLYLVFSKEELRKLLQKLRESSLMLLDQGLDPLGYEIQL

T2: LacI-CFP-Nup153 (human, UniProt P49790 1-1475)
T2 sequence: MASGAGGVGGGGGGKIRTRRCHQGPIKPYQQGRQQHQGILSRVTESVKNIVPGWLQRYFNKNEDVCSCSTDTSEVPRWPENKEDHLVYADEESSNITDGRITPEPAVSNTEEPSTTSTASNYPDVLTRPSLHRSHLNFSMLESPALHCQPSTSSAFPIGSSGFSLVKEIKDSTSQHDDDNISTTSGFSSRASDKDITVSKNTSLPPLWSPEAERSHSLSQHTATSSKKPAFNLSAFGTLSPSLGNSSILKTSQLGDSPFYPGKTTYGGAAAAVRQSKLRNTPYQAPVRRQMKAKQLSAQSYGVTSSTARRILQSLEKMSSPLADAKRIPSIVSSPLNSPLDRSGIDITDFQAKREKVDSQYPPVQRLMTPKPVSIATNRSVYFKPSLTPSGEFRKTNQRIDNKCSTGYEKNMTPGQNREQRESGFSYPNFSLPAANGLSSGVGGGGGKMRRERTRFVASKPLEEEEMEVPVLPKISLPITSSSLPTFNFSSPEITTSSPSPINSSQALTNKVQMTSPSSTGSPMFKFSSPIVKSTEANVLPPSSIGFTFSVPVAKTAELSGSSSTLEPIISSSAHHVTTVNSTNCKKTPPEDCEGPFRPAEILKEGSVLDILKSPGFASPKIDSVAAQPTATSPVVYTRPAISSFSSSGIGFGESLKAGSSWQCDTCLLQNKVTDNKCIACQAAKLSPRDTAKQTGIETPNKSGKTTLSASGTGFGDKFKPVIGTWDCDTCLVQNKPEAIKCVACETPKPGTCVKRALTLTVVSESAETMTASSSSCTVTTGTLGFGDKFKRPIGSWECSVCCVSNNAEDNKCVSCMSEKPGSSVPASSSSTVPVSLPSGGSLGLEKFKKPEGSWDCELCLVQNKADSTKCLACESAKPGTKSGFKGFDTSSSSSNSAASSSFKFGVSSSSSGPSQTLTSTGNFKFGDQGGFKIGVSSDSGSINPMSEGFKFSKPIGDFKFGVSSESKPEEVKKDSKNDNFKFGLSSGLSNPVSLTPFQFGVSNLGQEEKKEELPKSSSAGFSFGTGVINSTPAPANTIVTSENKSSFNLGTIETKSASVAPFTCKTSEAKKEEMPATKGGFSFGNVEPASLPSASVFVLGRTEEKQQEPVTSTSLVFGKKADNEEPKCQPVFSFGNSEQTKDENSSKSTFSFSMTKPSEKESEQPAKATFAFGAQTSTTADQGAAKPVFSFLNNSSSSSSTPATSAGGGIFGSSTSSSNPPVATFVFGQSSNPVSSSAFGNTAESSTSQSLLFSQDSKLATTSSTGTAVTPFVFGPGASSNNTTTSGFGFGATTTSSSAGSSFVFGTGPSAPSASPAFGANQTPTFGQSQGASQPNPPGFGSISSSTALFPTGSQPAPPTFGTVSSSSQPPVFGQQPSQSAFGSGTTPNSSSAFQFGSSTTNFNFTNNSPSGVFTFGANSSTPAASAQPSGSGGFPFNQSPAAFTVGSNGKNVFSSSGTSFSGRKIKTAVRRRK

T3: LacI-CFP-Nup50 (human, UniProt Q9UKX7 1-468)
T3 sequence: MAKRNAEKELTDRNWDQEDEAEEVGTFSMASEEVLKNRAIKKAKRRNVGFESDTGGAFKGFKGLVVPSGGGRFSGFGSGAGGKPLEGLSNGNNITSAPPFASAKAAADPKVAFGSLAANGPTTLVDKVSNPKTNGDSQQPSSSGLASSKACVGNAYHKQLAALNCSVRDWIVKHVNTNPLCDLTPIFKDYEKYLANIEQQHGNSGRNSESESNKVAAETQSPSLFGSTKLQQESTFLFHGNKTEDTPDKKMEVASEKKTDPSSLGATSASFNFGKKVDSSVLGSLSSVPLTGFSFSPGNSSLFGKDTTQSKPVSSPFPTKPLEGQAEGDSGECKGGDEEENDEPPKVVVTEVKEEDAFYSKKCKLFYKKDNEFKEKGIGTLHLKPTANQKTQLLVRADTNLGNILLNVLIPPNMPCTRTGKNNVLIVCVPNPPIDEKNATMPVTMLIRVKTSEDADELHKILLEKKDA

T4: LacI-CFP-Nup133 (human, UniProt Q8WUM0 1-1156)
T4 sequence: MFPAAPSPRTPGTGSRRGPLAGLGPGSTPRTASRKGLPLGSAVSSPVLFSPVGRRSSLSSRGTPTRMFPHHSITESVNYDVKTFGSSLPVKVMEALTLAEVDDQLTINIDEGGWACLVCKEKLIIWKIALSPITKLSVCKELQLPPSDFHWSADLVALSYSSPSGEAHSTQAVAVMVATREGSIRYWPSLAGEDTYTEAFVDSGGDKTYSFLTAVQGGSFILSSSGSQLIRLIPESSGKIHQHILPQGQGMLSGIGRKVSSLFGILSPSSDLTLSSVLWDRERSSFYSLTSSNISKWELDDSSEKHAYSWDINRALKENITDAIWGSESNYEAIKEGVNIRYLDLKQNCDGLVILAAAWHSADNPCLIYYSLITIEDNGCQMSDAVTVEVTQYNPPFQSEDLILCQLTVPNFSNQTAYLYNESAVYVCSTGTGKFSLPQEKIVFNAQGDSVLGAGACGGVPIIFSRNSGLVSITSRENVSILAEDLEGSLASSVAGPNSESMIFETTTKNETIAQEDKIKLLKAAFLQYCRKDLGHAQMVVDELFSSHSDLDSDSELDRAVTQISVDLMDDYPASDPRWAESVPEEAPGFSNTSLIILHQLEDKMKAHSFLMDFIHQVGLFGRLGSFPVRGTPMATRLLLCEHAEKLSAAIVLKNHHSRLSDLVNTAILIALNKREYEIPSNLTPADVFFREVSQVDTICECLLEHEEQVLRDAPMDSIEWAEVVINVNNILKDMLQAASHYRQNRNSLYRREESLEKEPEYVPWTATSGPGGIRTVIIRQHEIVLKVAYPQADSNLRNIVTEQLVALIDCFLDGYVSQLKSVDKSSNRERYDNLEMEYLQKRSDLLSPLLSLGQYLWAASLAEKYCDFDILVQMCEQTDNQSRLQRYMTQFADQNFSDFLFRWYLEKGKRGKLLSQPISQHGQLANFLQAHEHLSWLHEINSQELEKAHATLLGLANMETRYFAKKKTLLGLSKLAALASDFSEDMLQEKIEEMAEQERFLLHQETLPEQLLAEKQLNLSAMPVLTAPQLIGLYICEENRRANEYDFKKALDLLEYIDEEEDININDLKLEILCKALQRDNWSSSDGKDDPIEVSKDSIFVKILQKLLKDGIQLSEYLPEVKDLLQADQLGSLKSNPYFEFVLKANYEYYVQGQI


Key:
Assay in all cases: LacI/LacO array recruitment in cells
[1] = target: T1, LacI-CFP-Nup107
[2] = target: T2, LacI-CFP-Nup153
[3] = target: T3, LacI-CFP-Nup50
[4] = target: LacI-CFP-Nup214 (human, UniProt P35658 1-2090)
[5] = target: T4, LacI-CFP-Nup133

Chain of LacI-CFP-Nup214 (P35658 whole entry): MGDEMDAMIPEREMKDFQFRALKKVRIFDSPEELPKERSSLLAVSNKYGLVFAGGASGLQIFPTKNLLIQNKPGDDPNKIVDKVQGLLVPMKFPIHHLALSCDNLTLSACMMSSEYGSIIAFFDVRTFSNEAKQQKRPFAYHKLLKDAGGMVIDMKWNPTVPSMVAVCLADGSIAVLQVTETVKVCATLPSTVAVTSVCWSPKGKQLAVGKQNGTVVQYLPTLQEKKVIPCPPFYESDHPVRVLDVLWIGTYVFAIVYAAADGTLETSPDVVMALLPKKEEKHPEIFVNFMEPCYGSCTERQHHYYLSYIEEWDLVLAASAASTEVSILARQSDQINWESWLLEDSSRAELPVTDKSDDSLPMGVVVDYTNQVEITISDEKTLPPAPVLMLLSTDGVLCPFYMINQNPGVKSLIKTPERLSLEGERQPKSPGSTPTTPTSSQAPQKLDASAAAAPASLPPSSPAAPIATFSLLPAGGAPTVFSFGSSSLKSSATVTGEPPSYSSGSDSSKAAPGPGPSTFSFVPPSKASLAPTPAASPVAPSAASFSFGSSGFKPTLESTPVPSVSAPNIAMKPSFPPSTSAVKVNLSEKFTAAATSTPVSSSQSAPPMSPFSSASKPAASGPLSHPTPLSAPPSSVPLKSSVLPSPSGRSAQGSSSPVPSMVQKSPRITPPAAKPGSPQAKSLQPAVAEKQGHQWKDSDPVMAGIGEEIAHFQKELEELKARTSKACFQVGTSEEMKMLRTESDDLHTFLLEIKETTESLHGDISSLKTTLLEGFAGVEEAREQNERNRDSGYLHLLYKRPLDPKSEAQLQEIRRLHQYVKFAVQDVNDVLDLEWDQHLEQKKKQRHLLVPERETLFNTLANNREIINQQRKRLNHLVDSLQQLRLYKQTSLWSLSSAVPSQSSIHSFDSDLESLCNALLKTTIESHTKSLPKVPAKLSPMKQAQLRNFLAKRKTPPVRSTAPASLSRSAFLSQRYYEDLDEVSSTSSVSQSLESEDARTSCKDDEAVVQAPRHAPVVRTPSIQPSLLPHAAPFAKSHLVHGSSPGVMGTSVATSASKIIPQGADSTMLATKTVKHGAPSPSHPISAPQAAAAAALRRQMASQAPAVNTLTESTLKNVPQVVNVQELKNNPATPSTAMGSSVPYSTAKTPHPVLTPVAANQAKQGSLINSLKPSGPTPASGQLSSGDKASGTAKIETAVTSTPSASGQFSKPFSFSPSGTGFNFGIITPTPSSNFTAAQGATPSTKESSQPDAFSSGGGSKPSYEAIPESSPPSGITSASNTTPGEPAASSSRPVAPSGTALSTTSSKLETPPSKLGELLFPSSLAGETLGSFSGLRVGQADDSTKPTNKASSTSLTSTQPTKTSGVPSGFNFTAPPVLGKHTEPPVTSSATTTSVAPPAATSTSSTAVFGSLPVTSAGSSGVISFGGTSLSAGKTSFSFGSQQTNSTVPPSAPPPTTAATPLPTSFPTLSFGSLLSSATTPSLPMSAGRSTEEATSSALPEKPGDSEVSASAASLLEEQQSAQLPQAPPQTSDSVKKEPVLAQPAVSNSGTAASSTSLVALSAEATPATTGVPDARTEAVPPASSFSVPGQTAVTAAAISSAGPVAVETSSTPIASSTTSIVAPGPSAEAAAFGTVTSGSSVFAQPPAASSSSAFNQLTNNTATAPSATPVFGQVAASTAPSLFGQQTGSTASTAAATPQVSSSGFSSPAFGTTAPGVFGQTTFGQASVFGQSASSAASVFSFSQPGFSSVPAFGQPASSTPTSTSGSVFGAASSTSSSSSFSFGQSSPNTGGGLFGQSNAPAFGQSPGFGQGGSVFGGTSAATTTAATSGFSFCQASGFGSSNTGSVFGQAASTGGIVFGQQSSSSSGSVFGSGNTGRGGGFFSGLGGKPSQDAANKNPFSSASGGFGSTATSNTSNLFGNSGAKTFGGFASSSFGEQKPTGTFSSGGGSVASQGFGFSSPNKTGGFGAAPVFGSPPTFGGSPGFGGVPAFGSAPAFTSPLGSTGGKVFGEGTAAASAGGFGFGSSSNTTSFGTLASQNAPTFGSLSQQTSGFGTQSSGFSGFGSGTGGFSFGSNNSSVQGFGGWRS

percent of transfected cells showing colocalization [1] [%]	percent of transfected cells showing colocalization [2] [%]	percent of transfected cells showing colocalization [3] [%]	percent of transfected cells showing colocalization [4] [%]	percent of transfected cells showing colocalization [5] [%]	Binder
94	35	11	35	–	Nup133 (endogenous) (natural protein) MFPAAPSPRTPGTGSRRGPLAGLGPGSTPRTASRKGLPLGSAVSSPVLFSPVGRRSSLSSRGTPTRMFPHHSITESVNYDVKTFGSSLPVKVMEALTLAEVDDQLTINIDEGGWACLVCKEKLIIWKIALSPITKLSVCKELQLPPSDFHWSADLVALSYSSPSGEAHSTQAVAVMVATREGSIRYWPSLAGEDTYTEAFVDSGGDKTYSFLTAVQGGSFILSSSGSQLIRLIPESSGKIHQHILPQGQGMLSGIGRKVSSLFGILSPSSDLTLSSVLWDRERSSFYSLTSSNISKWELDDSSEKHAYSWDINRALKENITDAIWGSESNYEAIKEGVNIRYLDLKQNCDGLVILAAAWHSADNPCLIYYSLITIEDNGCQMSDAVTVEVTQYNPPFQSEDLILCQLTVPNFSNQTAYLYNESAVYVCSTGTGKFSLPQEKIVFNAQGDSVLGAGACGGVPIIFSRNSGLVSITSRENVSILAEDLEGSLASSVAGPNSESMIFETTTKNETIAQEDKIKLLKAAFLQYCRKDLGHAQMVVDELFSSHSDLDSDSELDRAVTQISVDLMDDYPASDPRWAESVPEEAPGFSNTSLIILHQLEDKMKAHSFLMDFIHQVGLFGRLGSFPVRGTPMATRLLLCEHAEKLSAAIVLKNHHSRLSDLVNTAILIALNKREYEIPSNLTPADVFFREVSQVDTICECLLEHEEQVLRDAPMDSIEWAEVVINVNNILKDMLQAASHYRQNRNSLYRREESLEKEPEYVPWTATSGPGGIRTVIIRQHEIVLKVAYPQADSNLRNIVTEQLVALIDCFLDGYVSQLKSVDKSSNRERYDNLEMEYLQKRSDLLSPLLSLGQYLWAASLAEKYCDFDILVQMCEQTDNQSRLQRYMTQFADQNFSDFLFRWYLEKGKRGKLLSQPISQHGQLANFLQAHEHLSWLHEINSQELEKAHATLLGLANMETRYFAKKKTLLGLSKLAALASDFSEDMLQEKIEEMAEQERFLLHQETLPEQLLAEKQLNLSAMPVLTAPQLIGLYICEENRRANEYDFKKALDLLEYIDEEEDININDLKLEILCKALQRDNWSSSDGKDDPIEVSKDSIFVKILQKLLKDGIQLSEYLPEVKDLLQADQLGSLKSNPYFEFVLKANYEYYVQGQI
–	11	11	90	70	Nup98 (endogenous) (natural protein) MFNKSFGTPFGGGTGGFGTTSTFGQNTGFGTTSGGAFGTSAFGSSNNTGGLFGNSQTKPGGLFGTSSFSQPATSTSTGFGFGTSTGTANTLFGTASTGTSLFSSQNNAFAQNKPTGFGNFGTSTSSGGLFGTTNTTSNPFGSTSGSLFGPSSFTAAPTGTTIKFNPPTGTDTMVKAGVSTNISTKHQCITAMKEYESKSLEELRLEDYQANRKGPQNQVGAGTTTGLFGSSPATSSATGLFSSSTTNSGFAYGQNKTAFGTSTTGFGTNPGGLFGQQNQQTTSLFSKPFGQATTTQNTGFSFGNTSTIGQPSTNTMGLFGVTQASQPGGLFGTATNTSTGTAFGTGTGLFGQTNTGFGAVGSTLFGNNKLTTFGSSTTSAPSFGTTSGGLFGNKPTLTLGTNTNTSNFGFGTNTSGNSIFGSKPAPGTLGTGLGAGFGTALGAGQASLFGNNQPKIGGPLGTGAFGAPGFNTTTATLGFGAPQAPVALTDPNASAAQQAVLQQHINSLTYSPFGDSPLFRNPMSDPKKKEERLKPTNPAAQKALTTPTHYKLTPRPATRVRPKALQTTGTAKSHLFDGLDDDEPSLANGAFMPKKSIKKLVLKNLNNSNLFSPVNRDSENLASPSEYPENGERFSFLSKPVDENHQQDGDEDSLVSHFYTNPIAKPIPQTPESAGNKHSNSNSVDDTIVALNMRAALRNGLEGSSEETSFHDESLQDDREEIENNSYHMHPAGIILTKVGYYTIPSMDDLAKITNEKGECIVSDFTIGRKGYGSIYFEGDVNLTNLNLDDIVHIRRKEVVVYLDDNQKPPVGEGLNRKAEVTLDGVWPTDKTSRCLIKSPDRLADINYEGRLEAVSRKQGAQFKEYRPETGSWVFKVSHF
